Here are results for two molecules from PMC7050210 (Nature, 2020).

Read-outs that look alike come from different tables or passages of the source. Non-standard residues stand in square brackets, D forms with d. No end group written: not given here. pS = N[C@@H](COP(=O)(O)O)C(=O)O

Test [1] deals with T1, β-TRCP1 (monomeric form, from residue 175 to C-terminus) (human, UniProt Q9Y297 175-605).
T1 sequence: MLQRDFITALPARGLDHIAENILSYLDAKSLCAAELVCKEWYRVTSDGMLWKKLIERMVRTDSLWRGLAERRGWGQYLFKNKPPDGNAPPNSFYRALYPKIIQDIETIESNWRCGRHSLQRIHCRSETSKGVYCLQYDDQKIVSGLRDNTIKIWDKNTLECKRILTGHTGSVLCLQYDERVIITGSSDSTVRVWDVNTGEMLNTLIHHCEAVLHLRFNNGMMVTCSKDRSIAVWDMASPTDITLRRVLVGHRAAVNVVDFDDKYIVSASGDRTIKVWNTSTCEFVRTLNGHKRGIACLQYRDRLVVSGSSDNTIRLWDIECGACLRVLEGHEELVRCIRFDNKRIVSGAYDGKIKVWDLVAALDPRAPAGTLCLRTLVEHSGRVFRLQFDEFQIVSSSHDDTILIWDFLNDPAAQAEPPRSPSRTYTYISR
As to the kind of experiment: cryo-EM structure.

Test [2] has as its target T1, β-TRCP1 (monomeric form, from residue …). The experiment in a line: cryo-EM structure. The source holds these as a separate data set.

In the case of CKKERLLDDRHDSGLDSMKDEE [IκBα-derived substrate peptide with N-terminal Cys (cryo EM peptide)], the binding result in test [1] is “binds”.
Turning to KKERLLDDRHD[pS]GLD[pS]MKDEE [IκBα-derived phosphopeptide KKERLLDDRHD(pS)GLD(pS)MKDEE], the binding result in test [2] is listed as “binds”.
